From publication PMC9482650, “Quantitative fragmentomics allow affinity mapping of interactomes” (Nature Communications, 2022)
Blank lines part the entries; values can stand above or below the binder they belong to.

Tests used:
Assay in all cases: holdup assay
Set-up in all cases: key: below the threshold = too weak to quantify, mostly under pKd 3.1 to 4
[1] = target: T1, APBA2_1, Q99767
T1 sequence (Q99767 563-664, limits assumed, looked up): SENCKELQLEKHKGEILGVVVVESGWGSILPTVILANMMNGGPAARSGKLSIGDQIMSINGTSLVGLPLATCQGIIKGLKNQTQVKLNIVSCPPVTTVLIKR

[2] = target: T2, CARD11, Q9BXL7
T2 sequence (Q9BXL7 662-765, limits assumed, looked up): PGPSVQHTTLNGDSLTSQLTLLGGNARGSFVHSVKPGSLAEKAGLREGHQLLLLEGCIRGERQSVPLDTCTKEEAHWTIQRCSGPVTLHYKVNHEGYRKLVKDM

[3] = target: DLG1_1, Q12959
[4] = target: DLG1_3, Q12959
[5] = target: T3, DLG3_1, Q92796
T3 sequence (Q92796 125-227, limits assumed, looked up): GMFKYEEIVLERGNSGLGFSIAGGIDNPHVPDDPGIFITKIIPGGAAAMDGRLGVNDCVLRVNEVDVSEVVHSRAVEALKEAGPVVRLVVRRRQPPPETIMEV

[6] = target: DLG4_2, P78352
DLG4_2, P78352, sequence (P78352 155-259): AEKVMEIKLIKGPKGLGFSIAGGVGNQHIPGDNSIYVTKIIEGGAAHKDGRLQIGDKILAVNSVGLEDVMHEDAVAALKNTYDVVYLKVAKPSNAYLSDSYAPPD

[7] = target: T4, FRMPD1, Q5SYB0
T4 sequence (Q5SYB0 52-145, limits assumed, looked up): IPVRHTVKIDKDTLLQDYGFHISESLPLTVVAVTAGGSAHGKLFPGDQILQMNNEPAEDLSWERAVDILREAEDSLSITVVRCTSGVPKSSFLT

[8] = target: FRMPD2_1, Q68DX3
FRMPD2_1, Q68DX3, sequence (Q68DX3 770-861): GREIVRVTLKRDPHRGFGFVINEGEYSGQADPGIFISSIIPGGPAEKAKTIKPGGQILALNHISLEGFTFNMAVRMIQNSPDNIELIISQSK

[9] = target: FRMPD2_3, Q68DX3
FRMPD2_3, Q68DX3, sequence (Q68DX3 1073-1166): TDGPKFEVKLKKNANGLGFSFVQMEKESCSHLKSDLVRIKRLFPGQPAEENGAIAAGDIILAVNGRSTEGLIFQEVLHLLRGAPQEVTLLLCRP

[10] = target: GRASP, Q7Z6J2
GRASP, Q7Z6J2, sequence (Q7Z6J2 96-193): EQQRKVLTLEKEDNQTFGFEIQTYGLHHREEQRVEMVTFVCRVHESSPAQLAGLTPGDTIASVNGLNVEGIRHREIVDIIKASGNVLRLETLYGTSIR

[11] = target: HTRA1, Q92743
HTRA1, Q92743, sequence (Q92743 360-477): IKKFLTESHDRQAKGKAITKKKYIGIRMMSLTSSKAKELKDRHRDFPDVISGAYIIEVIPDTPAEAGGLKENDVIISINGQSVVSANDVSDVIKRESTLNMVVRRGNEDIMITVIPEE

[12] = target: T5, HTRA4, P83105
T5 sequence (P83105 378-476, limits assumed, looked up): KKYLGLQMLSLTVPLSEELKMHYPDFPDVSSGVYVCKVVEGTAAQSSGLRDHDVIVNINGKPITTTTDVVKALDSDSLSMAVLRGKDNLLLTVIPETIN

[13] = target: Inadl_10, Q8NI35
Inadl_10, Q8NI35, sequence (Q8NI35 1673-1763): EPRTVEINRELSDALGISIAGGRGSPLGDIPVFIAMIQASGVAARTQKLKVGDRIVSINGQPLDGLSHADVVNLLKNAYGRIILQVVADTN

[14] = target: Inadl_5, Q8NI35
Inadl_5, Q8NI35, sequence (Q8NI35 673-780): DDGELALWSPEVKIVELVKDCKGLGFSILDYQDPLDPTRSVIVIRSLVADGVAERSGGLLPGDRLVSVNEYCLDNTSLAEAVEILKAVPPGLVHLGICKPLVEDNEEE

[15] = target: LDB3, O75112
LDB3, O75112, sequence (O75112 1-94): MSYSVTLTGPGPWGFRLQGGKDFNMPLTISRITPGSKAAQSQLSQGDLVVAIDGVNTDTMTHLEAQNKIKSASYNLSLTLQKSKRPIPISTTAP

[16] = target: T6, LIN7A, O14910
T6 sequence (O14910 103-200, limits assumed, looked up): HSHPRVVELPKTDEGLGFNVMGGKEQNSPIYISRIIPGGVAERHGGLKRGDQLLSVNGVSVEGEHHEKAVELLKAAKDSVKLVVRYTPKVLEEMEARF

[17] = target: T7, LNX2_3, Q8N448
T7 sequence (Q8N448 463-564, limits assumed, looked up): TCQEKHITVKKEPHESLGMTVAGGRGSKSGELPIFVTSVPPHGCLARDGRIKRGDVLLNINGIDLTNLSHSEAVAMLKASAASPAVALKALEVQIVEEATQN

[18] = target: T8, MPP6, Q9NZW5
T8 sequence (Q9NZW5 125-219, limits assumed, looked up): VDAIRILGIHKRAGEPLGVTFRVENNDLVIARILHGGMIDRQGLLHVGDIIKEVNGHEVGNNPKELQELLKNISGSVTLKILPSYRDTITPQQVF

[19] = target: T9, NHERF3_4, Q5T2W1
T9 sequence (Q5T2W1 373-468, limits assumed, looked up): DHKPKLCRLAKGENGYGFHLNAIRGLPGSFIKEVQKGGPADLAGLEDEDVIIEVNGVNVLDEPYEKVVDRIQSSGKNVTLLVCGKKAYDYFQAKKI

[20] = target: NOS1, P29475
NOS1, P29475, sequence (P29475 9-101): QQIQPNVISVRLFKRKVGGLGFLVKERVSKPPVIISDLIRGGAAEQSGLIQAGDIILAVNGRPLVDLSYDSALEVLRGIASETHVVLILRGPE

[21] = target: T10, PARD3B_1, Q8TEW8
T10 sequence (Q8TEW8 196-299, limits assumed, looked up): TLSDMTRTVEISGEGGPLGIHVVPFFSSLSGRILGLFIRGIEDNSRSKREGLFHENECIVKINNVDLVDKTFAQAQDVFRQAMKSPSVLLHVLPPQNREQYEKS

[22] = target: PARD3_3, Q8TEW0
PARD3_3, Q8TEW0, sequence (Q8TEW0 582-685): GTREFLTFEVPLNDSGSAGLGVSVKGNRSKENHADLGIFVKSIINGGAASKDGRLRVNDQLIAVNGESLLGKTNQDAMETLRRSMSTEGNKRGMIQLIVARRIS

[23] = target: T11, PDZD2_2, O15018
T11 sequence (O15018 329-429, limits assumed, looked up): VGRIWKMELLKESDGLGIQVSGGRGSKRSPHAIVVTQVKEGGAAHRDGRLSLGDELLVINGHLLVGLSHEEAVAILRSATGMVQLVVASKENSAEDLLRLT

[24] = target: SCRIB_1, Q14160
SCRIB_1, Q14160, sequence (Q14160 718-814): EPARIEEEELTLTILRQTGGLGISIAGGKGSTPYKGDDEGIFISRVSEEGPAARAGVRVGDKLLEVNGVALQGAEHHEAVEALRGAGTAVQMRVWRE

[25] = target: T12, SNTB1, Q13884
T12 sequence (Q13884 107-205, limits assumed, looked up): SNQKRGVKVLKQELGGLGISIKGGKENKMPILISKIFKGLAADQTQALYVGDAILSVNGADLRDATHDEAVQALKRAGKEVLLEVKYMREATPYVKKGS

[26] = target: TJP1_3, Q07157
TJP1_3, Q07157, sequence (Q07157 416-512): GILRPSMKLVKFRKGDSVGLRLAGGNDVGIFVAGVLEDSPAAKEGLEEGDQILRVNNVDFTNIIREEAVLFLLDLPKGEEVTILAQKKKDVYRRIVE

[27] = plain residues with an end cap or a label only (N-terminal biotin on a linker: ahx)
[28] = plain residues with an end cap or a label only (N-terminal biotin on a linker: ado-ado)
[29] = plain residues with an end cap or a label only (N-terminal biotin on a linker: ttds)

- pKd [1, 27]: below the threshold
- pKd [2, 27]: below the threshold
- pKd [3, 27]: below the threshold
- pKd [4, 27]: below the threshold
- pKd [5, 27]: below the threshold
- pKd [6, 27]: below the threshold
- pKd [7, 27]: below the threshold
- pKd [8, 27]: below the threshold
- pKd [9, 27]: below the threshold
- pKd [10, 27]: below the threshold
- pKd [11, 27]: 4.72
- pKd [12, 27]: below the threshold
- pKd [13, 27]: below the threshold
- pKd [14, 27]: 3.61
- pKd [15, 27]: below the threshold
- pKd [16, 27]: below the threshold
- pKd [17, 27]: below the threshold
- pKd [18, 27]: below the threshold
- pKd [19, 27]: below the threshold
- pKd [20, 27]: 3.83
- pKd [21, 27]: 4.57
- pKd [22, 27]: 5.32
- pKd [23, 27]: below the threshold
- pKd [24, 27]: below the threshold
- pKd [25, 27]: below the threshold
- pKd [26, 27]: below the threshold
Binder: VNENQKEYFF [CNTNAP4, Q9C0A0]

- pKd [1, 28]: below the threshold
- pKd [2, 28]: below the threshold
- pKd [3, 28]: below the threshold
- pKd [4, 28]: below the threshold
- pKd [5, 28]: below the threshold
- pKd [6, 28]: below the threshold
- pKd [7, 28]: below the threshold
- pKd [8, 28]: below the threshold
- pKd [9, 28]: below the threshold
- pKd [10, 28]: below the threshold
- pKd [11, 28]: below the threshold
- pKd [12, 28]: below the threshold
- pKd [13, 28]: below the threshold
- pKd [14, 28]: below the threshold
- pKd [15, 28]: below the threshold
- pKd [16, 28]: below the threshold
- pKd [17, 28]: below the threshold
- pKd [18, 28]: below the threshold
- pKd [19, 28]: below the threshold
- pKd [20, 28]: below the threshold
- pKd [21, 28]: below the threshold
- pKd [22, 28]: below the threshold
- pKd [23, 28]: below the threshold
- pKd [24, 28]: 3.5
- pKd [25, 28]: below the threshold
- pKd [26, 28]: below the threshold
Binder: EKPIDSETKM [SLC1A3, P43003]

- pKd [1, 29]: below the threshold
- pKd [2, 29]: below the threshold
- pKd [3, 29]: 3.79
- pKd [4, 29]: 4.28
- pKd [5, 29]: 3.3
- pKd [6, 29]: 4.58
- pKd [7, 29]: below the threshold
- pKd [8, 29]: below the threshold
- pKd [9, 29]: below the threshold
- pKd [10, 29]: below the threshold
- pKd [11, 29]: below the threshold
- pKd [12, 29]: below the threshold
- pKd [13, 29]: below the threshold
- pKd [14, 29]: below the threshold
- pKd [15, 29]: below the threshold
- pKd [16, 29]: below the threshold
- pKd [17, 29]: below the threshold
- pKd [18, 29]: below the threshold
- pKd [19, 29]: below the threshold
- pKd [20, 29]: 3.52
- pKd [21, 29]: 3.76
- pKd [22, 29]: below the threshold
- pKd [23, 29]: 3.75
- pKd [24, 29]: 4.49
- pKd [25, 29]: 3.97
- pKd [26, 29]: below the threshold
Binder: PSRDRKETSI [RALBP1, Q15311]

- pKd [1, 28]: below the threshold
- pKd [2, 28]: below the threshold
- pKd [3, 28]: below the threshold
- pKd [4, 28]: below the threshold
- pKd [5, 28]: below the threshold
- pKd [6, 28]: below the threshold
- pKd [7, 28]: below the threshold
- pKd [8, 28]: below the threshold
- pKd [9, 28]: below the threshold
- pKd [10, 28]: below the threshold
- pKd [11, 28]: 3.76
- pKd [12, 28]: below the threshold
- pKd [13, 28]: below the threshold
- pKd [14, 28]: below the threshold
- pKd [15, 28]: below the threshold
- pKd [16, 28]: below the threshold
- pKd [17, 28]: below the threshold
- pKd [18, 28]: below the threshold
- pKd [19, 28]: below the threshold
- pKd [20, 28]: below the threshold
- pKd [21, 28]: below the threshold
- pKd [22, 28]: below the threshold
- pKd [23, 28]: 4.13
- pKd [24, 28]: below the threshold
- pKd [25, 28]: below the threshold
- pKd [26, 28]: below the threshold
Binder: DAAHHDESNC [FMNL3, Q8IVF7]

- pKd [1, 27]: below the threshold
- pKd [2, 27]: below the threshold
- pKd [3, 27]: below the threshold
- pKd [4, 27]: below the threshold
- pKd [5, 27]: below the threshold
- pKd [6, 27]: below the threshold
- pKd [7, 27]: below the threshold
- pKd [8, 27]: below the threshold
- pKd [9, 27]: below the threshold
- pKd [10, 27]: 4.41
- pKd [11, 27]: 4.3
- pKd [12, 27]: below the threshold
- pKd [13, 27]: below the threshold
- pKd [14, 27]: below the threshold
- pKd [15, 27]: below the threshold
- pKd [16, 27]: below the threshold
- pKd [17, 27]: below the threshold
- pKd [18, 27]: below the threshold
- pKd [19, 27]: 3.8
- pKd [20, 27]: below the threshold
- pKd [21, 27]: 4.52
- pKd [22, 27]: 5.09
- pKd [23, 27]: 3.75
- pKd [24, 27]: below the threshold
- pKd [25, 27]: below the threshold
- pKd [26, 27]: below the threshold
Binder: KEYDDELTFF [USH1C, Q9Y6N9]
